Non-standard residues stand in square brackets, D forms with d. Fluo = fluorescein on the Cys side-chain sulfur; Nle = CCCC[C@H](N)C(=O)O

This passage reports Kd results from US20130109619A1 (UNITED STATES OF AMERICA AS REPRESENTED BY THE SECRETARY …, published 2013).

For this assay, the target named is recombinant Epstein Barr virus (EBV) IL10 (Epstein Barr virus, UniProt P03180 24-170). Put plainly: concentration-dependent changes in fluorescence intensity of the environment-sensitive fluorescein label on the peptide.
Sequence of recombinant Epstein Barr virus (EBV) IL10 (P03180 24-170 limits assumed): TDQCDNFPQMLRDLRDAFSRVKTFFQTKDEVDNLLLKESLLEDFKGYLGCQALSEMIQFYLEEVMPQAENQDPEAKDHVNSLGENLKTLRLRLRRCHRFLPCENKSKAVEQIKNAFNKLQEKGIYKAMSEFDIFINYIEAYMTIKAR

B1: IL10-HF-6 (peptide)
peptide: Ac-C(Fluo)YKA[Nle]SEFDIFINYIEAY[Nle]T[Nle]KIRN-NH2
notes: also called fluorescent derivative of helix F of IL10; helix F analog
In the case of B1, the Kd worked out at 50 nM.
